Test [1] addresses T1, HER1, full length, on transfected HEK293 cells (human, UniProt P00533 25-1210).
T1 construct: HEK293 transiently transfected with a plasmid coding for full length HER1; also called EGFR
Put plainly: IHC on HEK293 cells transiently transfected with full length HER1; NC = untransfected cells. How it is done:
All selected clones were tested for reactivity and specificity in IHC. […] After an additional fixation in formalin overnight the Agarose blocks were embedded in paraffin. Untransfected HEK293 cells were used as negative controls and treated accordingly to the transfected cells. After paraffin embedding 3 μm thin sections were prepared using a microtome. The sections were mounted on glass microscopy slides and dried for 2 h. All further steps of the immunohistochemical staining procedure were carried out using a Ventana Benchmark XT. The slides were dewaxed and antigen retrieval was performed by applying heat for 1 hour. For antigen retrieval the Ventana buffer CC1 was used. The antibodies were used at a concentration of 1 μg/ml. For the detection of bound antibody the Ventana UltraView detection kit was used.

Test [2] has as its target T2, TtSlyDcys-Her3.
T2 chain: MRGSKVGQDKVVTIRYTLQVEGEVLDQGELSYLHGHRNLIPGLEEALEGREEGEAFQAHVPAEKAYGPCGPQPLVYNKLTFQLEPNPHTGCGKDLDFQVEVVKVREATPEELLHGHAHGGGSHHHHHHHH
In words: ELISA, antigen coated, hybridoma supernatant. On the procedure: For the ELISA screening an antigen down format was used. […] Hybridoma Supernatant was added to the plates and incubated for 1 h at room temperature. Bound antibody was detected with a HRP-labeled F(ab′)₂ goat anti-mouse Fcγ (Dianova) and ABTS (Roche) was used as a HRP-substrate.
As negative controls the scaffold proteins TtSlyDcas and TgSlyDΔIF were used.

Test [3] concerns the target T3, SBP-tagged HER3-ECD (human, UniProt P21860 20-643).
T3 construct: not shown: SBP tag
Put plainly: time-resolved fluorescence, 10 nM Eu-labelled Heregulin-beta on plate-bound SBP-tagged HER3-ECD, antibody titrated. On the procedure: (§1) On the next day the wells were washed three times with washing buffer (PBS+0.05% Tween-20) and blocked with PBS containing 1% BSA for one hour. After another three washes with washing buffer, 40 μl antibody solution (in Delfia Binding Buffer) was added to each well as a 2× stock of the desired final concentrations (10⁻³ to 10³ nM, alternatively 10⁻⁴ to 10² nM). Immediately […] of 20 nM Europium-labeled Heregulin-beta (PeproTech, Cat. #100-03) was added to achieve a final concentration of 10 nM. The plates were incubated on a shaker at room temperature for two hours. Following three washes with Delfia Wash Buffer, Delfia Enhancement Solution was added and incubated on a shaker for 15 minutes (light protected). Finally, the plates were measured in a Tecan Infinite F200 reader using a time-resolved fluorescence measurement protocol.

Test [4] deals with T4, TtSlyD-Wildtype.
T4 construct: scaffold without insert; N-terminal methionine can be present or not; also called T.T.SlyD-wt; wild type Thermus thermophilus SlyD protein
T4 chain: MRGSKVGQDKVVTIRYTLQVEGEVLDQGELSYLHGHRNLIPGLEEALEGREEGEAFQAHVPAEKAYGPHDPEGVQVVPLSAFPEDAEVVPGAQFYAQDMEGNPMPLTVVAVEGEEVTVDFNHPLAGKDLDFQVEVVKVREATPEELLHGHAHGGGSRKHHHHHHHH
In words: SPR, antibody captured, 25 C.

In test [5] the target is T5, human Heregulin fragment (HRG) (human).
T5 construct: a 44 kDa homodimeric protein, expressed in FreeStyle 293-F cells; also called Heregulin beta (HRG)
T5 chain: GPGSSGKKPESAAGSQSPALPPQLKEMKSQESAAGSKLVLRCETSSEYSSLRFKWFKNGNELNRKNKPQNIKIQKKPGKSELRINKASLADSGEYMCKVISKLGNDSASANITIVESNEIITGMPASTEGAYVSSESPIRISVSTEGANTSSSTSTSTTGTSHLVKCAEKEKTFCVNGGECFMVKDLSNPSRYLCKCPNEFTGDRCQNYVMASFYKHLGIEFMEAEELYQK
Put plainly: SPR Biacore T200, antibody captured, 25 C. On the procedure: (§2) A Biacore T200 instrument (GE Healthcare) was mounted with a CM5 series sensor. The sensor was normalized in HBS-ET buffer (10 mM HEPES pH 7.4, 150 mM NaCl, 3 mM EDTA, 0.05% w/v Tween 20) according to the manufacturer's instructions. The sample buffer was the system buffer supplemented with 1 mg/ml CMD (Carboxymethyldextran, Sigma #86524). The system operated at 25° C. 6500 RU RAM-Fcγ (relative units of Fcγ-fragment RamlgG, GE Healthcare) were immobilized according to the manufacturer's instructions using amine coupling EDC/NHS chemistry on all four flow cells. The sensor was deactivated using 1M ethanolamine. […] Concentration dependent kinetics were measured. […] All analytes were injected for 5 min association time and 10 min dissociation time at 100 μl/min flow rate. The sensor capture system was regenerated by a 3 min injection at 10 μl/min of 10 mM glycine pH 1.7. Where possible kinetic data was evaluated using the Biacore T200 evaluation software.

Test [6] concerns the target T6, HER4 ECD-HRG complex (Heregulin-complexed Her-4 ECD) (human, UniProt Q15303 26-651).
T6 construct: Her-4 ECD incubated with a 5-fold molar excess of Heregulin
T6 sequence 1: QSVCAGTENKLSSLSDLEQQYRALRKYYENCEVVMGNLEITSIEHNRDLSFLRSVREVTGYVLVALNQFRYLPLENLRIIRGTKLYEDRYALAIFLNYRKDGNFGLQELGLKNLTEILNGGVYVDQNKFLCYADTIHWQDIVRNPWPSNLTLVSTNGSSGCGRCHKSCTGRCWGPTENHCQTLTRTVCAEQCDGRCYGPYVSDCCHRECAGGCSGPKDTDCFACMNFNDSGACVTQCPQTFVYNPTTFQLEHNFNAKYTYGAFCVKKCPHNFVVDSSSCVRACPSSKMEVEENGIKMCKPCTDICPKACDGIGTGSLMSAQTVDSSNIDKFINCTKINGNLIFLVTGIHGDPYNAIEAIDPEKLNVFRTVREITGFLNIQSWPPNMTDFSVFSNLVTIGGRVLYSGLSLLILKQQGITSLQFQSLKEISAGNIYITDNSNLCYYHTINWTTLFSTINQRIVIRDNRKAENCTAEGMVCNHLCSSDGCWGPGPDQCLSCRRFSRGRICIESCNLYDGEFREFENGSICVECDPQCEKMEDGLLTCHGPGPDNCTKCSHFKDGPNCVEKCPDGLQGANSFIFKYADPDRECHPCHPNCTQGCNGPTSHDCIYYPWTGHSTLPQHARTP
T6 sequence 2: T5 chain
In words: SPR Biacore T200, antibody captured, 25 C. How it is done:
as §2
Background: In SPR one partner is held on a chip, and binding of the other changes the refractive index at the surface.

Test [7] has as its target T3, SBP-tagged HER3-ECD. In words: plate assay: SBP-tagged HER3-ECD on streptavidin plate, antibody titrated, 10 nM Europium-labeled Heregulin-beta detected by time-resolved fluorescence; half-maximal rise of the Heregulin signal. On the procedure: as §1

Changes are numbered by the printed parent chain.

As usually defined, the EC50 (read off the curve) is the concentration needed to bring the measured effect to its halfway point. Low readings indicate an effect from little substance, high ones a need for much substance.

B1: anti-HER3 antibody M-17-02 (antibody, V domains shown)
VH: EVQLQQSGTVLARPGASVKMSCKASGYSFTSYWIHWVKQRPGQGLEWIGAIYPGNSDTTYNQKFKGKAKLTAVTSASTAYMELSSLTNEDSAVYYCARTGVWTSYYFDYWGQGTTLTVSS
VL: DIQMTQSPASLSASVGETVTITCRASENIYSNLAWYQQKQGKSPQLLVYAATNLADGVPSRFSGSGSGTQFSLRINSLQPEDFGSYYCQHFYGTPFTFGTGTKLEIK
notes: mouse hybridoma clone
Consider B1, for which the binding result in test [1] is recorded as “no binding”. Further, in test [2], the “OD 405 nm” value amounted to 1.55 OD.

B2: anti-HER3 antibody M-43-01 (antibody, V domains shown)
VH: EVQLQQSGTVLARPGASVKMSCKASDYTFSNYWVHWVKQRPGQGLEWIGAIYPGNGDSTYYQKFKGKATLTAVTSTSTAYMDLSSLTNGDSAVYFCTRSGVGYNYYFDYWGQGTTLTVSS
VL: B1 VL with A50I, R74K, F83L, K107E
notes: mouse hybridoma clone
In the case of B2, the binding result in test [1] is “no binding”; in test [4] it was “no binding”; in test [5], “no binding (tested: 450 nM)”; in test [6], “no binding (tested: 90 nM)”. Besides, the “signal of HRG binding to HER3-ECD at the plateau” value (shortened to “signal of HRG binding to HER3-ECD”) in test [3] was 200%. The “OD 405 nm” value in test [2] was 3.5 OD.

B3: anti-HER3 antibody M-46-01 (antibody, V domains shown)
VH: QIQLQQSGPQLVRPGASVKISCKASGYSFTSYWMHWVKQRPGRGLEWIGMIDPSDGVTRLNQKFKDKATLTVDNSSSTAYMQLSSPTSEDSAVHYCARVDVLYWYFDVWGAGTTVTVSS
VL: DIVLTQSPASLAVSLGQRATISCRASKSISISGYSYMHWYQQKAGQPPKLLIYLTSNLESGVPARFSGSGSGTDFTLNIHPVEEEDAATYYCHHSRELPFTFGSGTKLEIK
notes: mouse hybridoma clone
For B3, the binding result is “no binding” in test [1], “no binding” in test [4], “no binding (tested: 450 nM)” in test [5] and “no binding (tested: 90 nM)” in test [6]. In addition, the “signal of HRG binding to HER3-ECD” value in test [3] amounted to 330%. In addition, the “EC50 (read off the curve)” value in test [7] was around 2 nM.

B4: anti-HER3 antibody M-08-11 (antibody, V domains shown)
VH: QAYLQQSGAELMRPGASVRMSCQASGYTFTSYTIHWLKQTPRQGLEWIGAIYPRNGDFSYNQKFKDKASLTVDTSSSTAYMHLSSLTSEDSAVYFCARTINYGDWFAYWGQGTLVTVSA
VL: DIQMIQSPASLFVSEGETVIITCRASENIYSNLAWYHQKKGKSPQVLVYAAIKLADGVPLRFSGSGSGTQFSLKINSLQSEDFGSYYCQHFWGPPYTFGSGTNLEIK
notes: mouse monoclonal antibody from hybridoma, tested as hybridoma supernatant or as antibody; also called M-011
With B4, in test [3], the “signal of HRG binding to HER3-ECD” value turned out to be 200%. Also, in test [7], the “EC50 (read off the curve)” value was around 7 nM.

Source of the values: US20180094062A1 (Hoffmann-La Roche, published 2018).
